The values that follow are results of earlier work, collected in US20260091141A1, “GENE EDITING METHODS, SYSTEMS, AND COMPOSITIONS FOR TREATING SPINAL MUSCULAR ATROPHY” (The Broad Institute, Inc., priority 2023, published 2026).

The subject of the data set is DNA. The note with it: SpCas9 mutation relative to SEQ ID NO: 209; UniProtKB Q99ZW2 entry.

B1: 175-307 deletion: SpCas9 mutation relative to SEQ ID NO: 209 (protein)
chain: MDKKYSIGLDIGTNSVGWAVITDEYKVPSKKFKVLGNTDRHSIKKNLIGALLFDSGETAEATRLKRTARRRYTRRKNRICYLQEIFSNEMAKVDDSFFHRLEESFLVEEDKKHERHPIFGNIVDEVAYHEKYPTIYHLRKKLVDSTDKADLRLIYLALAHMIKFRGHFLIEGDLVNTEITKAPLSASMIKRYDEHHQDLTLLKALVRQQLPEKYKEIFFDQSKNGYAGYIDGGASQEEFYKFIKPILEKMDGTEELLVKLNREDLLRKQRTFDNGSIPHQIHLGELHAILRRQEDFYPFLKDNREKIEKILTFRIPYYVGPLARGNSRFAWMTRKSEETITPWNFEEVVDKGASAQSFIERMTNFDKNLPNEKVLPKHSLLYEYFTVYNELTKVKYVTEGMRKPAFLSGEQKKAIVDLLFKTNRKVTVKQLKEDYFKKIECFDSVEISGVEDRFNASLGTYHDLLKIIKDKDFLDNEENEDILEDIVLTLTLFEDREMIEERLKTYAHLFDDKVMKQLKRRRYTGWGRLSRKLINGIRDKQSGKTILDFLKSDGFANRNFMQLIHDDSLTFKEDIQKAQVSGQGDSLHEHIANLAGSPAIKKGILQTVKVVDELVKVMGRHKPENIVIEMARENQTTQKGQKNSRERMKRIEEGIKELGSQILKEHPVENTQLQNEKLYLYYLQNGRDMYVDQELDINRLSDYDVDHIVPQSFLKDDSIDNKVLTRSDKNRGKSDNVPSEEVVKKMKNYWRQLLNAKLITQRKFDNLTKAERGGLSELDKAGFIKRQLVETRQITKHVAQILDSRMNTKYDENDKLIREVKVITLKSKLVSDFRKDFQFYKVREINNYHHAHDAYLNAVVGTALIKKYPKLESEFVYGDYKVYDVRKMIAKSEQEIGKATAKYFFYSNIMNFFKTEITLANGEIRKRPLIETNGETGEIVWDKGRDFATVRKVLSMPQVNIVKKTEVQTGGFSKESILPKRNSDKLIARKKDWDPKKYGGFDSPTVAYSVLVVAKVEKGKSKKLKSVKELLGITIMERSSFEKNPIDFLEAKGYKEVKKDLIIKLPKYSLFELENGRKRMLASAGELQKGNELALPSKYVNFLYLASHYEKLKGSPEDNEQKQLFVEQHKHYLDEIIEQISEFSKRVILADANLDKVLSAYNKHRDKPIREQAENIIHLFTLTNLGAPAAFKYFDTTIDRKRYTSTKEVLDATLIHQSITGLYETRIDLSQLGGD
modifications: serotype M1; Streptococcus pyogenes
For B1, the “Function/Characteristic (as reported)” value is recorded as “About 50% decreased DNA cleavage”.
